Experiment [1] deals with mouse HVEM expressed on cells (mouse) (UniProt Q80WM9). Nature of the experiment: flow cytometry competition, graded soluble gD against 1.4 µg/ml mBTLA-T on mHVEM-HEK293 cells (FIG. 3G). For orientation: A flow cytometer gives signals particle by particle.
Experiment [2] concerns the target mouse HVEM-Fc (mouse; human) (UniProt Q80WM9). Nature of the experiment: flow cytometry competition, graded soluble gD against 2 µg/ml mHVEM:Fc on hLIGHT-EL4 cells (FIG. 3G).

Sequence of mouse HVEM-Fc (mouse; human) (Q80WM9 39-206 limits assumed): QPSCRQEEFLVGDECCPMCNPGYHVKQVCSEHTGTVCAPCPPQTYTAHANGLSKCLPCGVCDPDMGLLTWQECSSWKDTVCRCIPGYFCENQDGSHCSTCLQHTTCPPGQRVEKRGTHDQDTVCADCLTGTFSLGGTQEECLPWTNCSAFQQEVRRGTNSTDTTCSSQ
Sequence of mouse HVEM expressed on cells (mouse) (Q80WM9 39-275): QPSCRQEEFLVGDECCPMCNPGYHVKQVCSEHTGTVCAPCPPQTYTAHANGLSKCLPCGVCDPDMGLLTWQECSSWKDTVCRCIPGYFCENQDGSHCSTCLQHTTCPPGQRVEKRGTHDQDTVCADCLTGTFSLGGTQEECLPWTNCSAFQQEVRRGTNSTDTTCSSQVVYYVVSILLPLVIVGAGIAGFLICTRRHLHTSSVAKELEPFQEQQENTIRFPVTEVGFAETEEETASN

With “purified recombinant soluble gD (gD-1Δ290-299)”, the dissociation constant (Kd) in experiment [1] and in experiment [2] was 250 nM throughout.

A word on the Kd: it is the constant that tells how readily two partners part at equilibrium.

Values taken from patent publication US8349320.
